Source: patent US20070060522A1
Blank lines part the entries; values can stand above or below the substance they belong to.

Columns and labels:
Experiment in all cases: cell-based or functional assay
[1] = biological target: αMβ2 (Mac-1; CD11b/CD18) on human peripheral blood monocytes (human) (UniProt P11215)
[2] = biological target: CD54 (ICAM-1) on A375 human melanoma cells (human) (UniProt P05362)
[3] = biological target: αLβ2 (LFA-1; CD11a/CD18) on human peripheral blood leukocytes (human) (UniProt P20701)

CD54 (ICAM-1) on A375 human melanoma cells (human), sequence (P05362 28-532): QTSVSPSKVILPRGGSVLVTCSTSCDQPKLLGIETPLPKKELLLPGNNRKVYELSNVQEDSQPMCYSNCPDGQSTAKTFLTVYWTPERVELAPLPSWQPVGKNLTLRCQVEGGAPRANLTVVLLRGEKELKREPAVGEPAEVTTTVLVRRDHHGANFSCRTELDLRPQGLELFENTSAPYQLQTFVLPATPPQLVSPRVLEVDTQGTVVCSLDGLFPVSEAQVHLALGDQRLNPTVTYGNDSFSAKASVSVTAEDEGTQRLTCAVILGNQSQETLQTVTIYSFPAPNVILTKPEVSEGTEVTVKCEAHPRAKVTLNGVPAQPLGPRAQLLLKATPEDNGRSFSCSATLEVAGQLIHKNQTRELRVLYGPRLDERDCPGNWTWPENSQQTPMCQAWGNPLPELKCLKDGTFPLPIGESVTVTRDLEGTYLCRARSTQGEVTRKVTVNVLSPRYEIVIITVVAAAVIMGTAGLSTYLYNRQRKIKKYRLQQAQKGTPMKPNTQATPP

inhibition of monocyte adherence to sFn pretreated tumor cells [1]: 80% | inhibition of monocyte adherence to untreated A375 cells [1]: 22.5%
Substance: blocking monoclonal anti-αMβ2 antibody (clone ICRF44)

inhibition of adherence of sFn pretreated monocytes to A375 cells [2]: 86% | inhibition of adherence of untreated monocytes to A375 cells [2]: 53%
Substance: murine anti-human monoclonal blocking antibody against CD54 (clone 84H10)

inhibition of monocyte adherence to sFn pre-treated A375 cells [3]: 23% | inhibition of monocyte adherence to untreated A375 cells [3]: 80%
Substance: murine anti-human monoclonal blocking antibody against αLβ2 (clone 25.3)

monocyte adherence when monocytes and A375 cells were both pre-treated with sFn, static microplate assay (untreated control 32.9+1.3%) [2]: 15.9% | adherence of sFn treated monocytes to untreated A375 cells, static microplate assay (untreated control 32.9+1.3%) [1]: 38.8% | monocyte adherence to sFn pre-treated A375 cells, static microplate assay (untreated control 32.9+1.3%) [1]: 68.5%
Substance: soluble fibrin (sFn) (from UniProt P02671 36-629; P02675 45-491; P02679 27-453) (ligand)
